Earlier results on 3 substances are cited in PMC8531642.

One data set concerns the target Cytochrome c (UniProt P99999).
For a further data set, the target named is LRG1 (Homo sapiens) (UniProt P02750). Put plainly: SPR. Background: Surface plasmon resonance follows binding to a sensor surface in real time, without labels.
UniProt P02750, sequence (P02750 36-347): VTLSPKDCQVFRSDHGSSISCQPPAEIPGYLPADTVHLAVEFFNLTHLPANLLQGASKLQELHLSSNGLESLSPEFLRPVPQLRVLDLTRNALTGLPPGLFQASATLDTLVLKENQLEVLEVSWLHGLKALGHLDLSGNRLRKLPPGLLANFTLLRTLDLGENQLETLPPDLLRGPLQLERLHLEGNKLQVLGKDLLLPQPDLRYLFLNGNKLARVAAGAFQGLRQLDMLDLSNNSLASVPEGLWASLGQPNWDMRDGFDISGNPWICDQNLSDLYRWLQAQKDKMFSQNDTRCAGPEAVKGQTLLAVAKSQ

Cytochrome c, sequence (P99999 2-105): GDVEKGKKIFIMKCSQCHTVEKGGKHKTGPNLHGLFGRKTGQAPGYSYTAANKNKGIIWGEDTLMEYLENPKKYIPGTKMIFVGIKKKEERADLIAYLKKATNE

In general, Kd refers to the constant that tells how readily two partners part at equilibrium. Apaf-1 (from UniProt O14727): in the data set with Cytochrome c, the Kd is 500 nM. Take TGF-β1 (from UniProt P01137): the equilibrium dissociation constant (Kd) with LRG1 (Homo sapiens) is 2320 nM. Consider Cytochrome c (from UniProt P99999), for which the Kd with LRG1 (Homo sapiens) is 0.000158 nM.
